This is an account of results in publication PMC12328743.

Bridges are numbered along the chain shown (N, C = ends). Where no end group is shown, it is not given here.

This test concerns the target staphylococcal TMcin-G1905 (mature transmembrane helix-containing bacteriocin peptide, processed product of TmcA) (Staphylococcus aureus (isolate G1905)).

B1: staphylococcal TMcin-G1905 (mature transmembrane helix-containing bacteriocin peptide, processed product of TmcA) (peptide)
chain: AWFVVLLAAILVFATAIFAGLTIWCVVNQHGKFTGNWNWHIKGVSLDVECKR
modifications: disulfide 25-50
In turn, B1 came in with a discrete stepwise conductance events in voltage-clamped planar lipid bilayers (DPhPC, 150 mM KCl) after adding purified TMcin-G1905; median conductance of 10.8 nS.
